33 molecules from paper PMC9723946 (The Journal of Biological Chemistry, 2022) can be followed below.

By Kd is commonly meant the free concentration of one partner at which half of the binding sites on the other are occupied at equilibrium, for simple one-to-one binding.

Where two headings read alike, the source gives them in different places. Where no end group is shown, it is not given here. Ahx = NCCCCCC(=O)O

Experiment [1] deals with T1, His-tagged G3BP1 NTF2 (peptide arrays) (human, UniProt Q13283 1-139). Put plainly: peptide or protein array.
The target of experiment [2] is T1, His-tagged G3BP1 NTF2 (peptide arrays). Kind of experiment: peptide or protein array. The source holds these as a separate data set.
The target of experiment [3] is G3BP1 NTF2-like domain (1-139), WT (human, UniProt Q13283 1-139). Put plainly: fluorescence polarisation. Background: In fluorescence polarisation assays a small probe gives low polarisation when free and higher when bound to something large.
Experiment [4] concerns the target G3BP1 NTF2-like domain (1-139) F15W (human, UniProt Q13283 1-139, F15W). Kind of experiment: fluorescence polarisation.
Experiment [5] has as its target G3BP1 NTF2-like domain (1-139) F33W (human, UniProt Q13283 1-139, F33W). Put plainly: fluorescence polarisation.
Experiment [6] addresses G3BP1 NTF2-like domain (1-139) F124W (human, UniProt Q13283 1-139, F124W). Kind of experiment: fluorescence polarisation.
The target in experiment [7] is G3BP1 NTF2-like domain (1-139) F15/33W (human, UniProt Q13283 1-139, F15W | F33W). Kind of experiment: fluorescence polarisation.
The target of experiment [8] is G3BP1 NTF2-like domain (1-139) F15/124W (human, UniProt Q13283 1-139, F15W | F124W). Kind of experiment: fluorescence polarisation.
The target of experiment [9] is G3BP1 NTF2-like domain (1-139) F33/124W (human, UniProt Q13283 1-139, F33W | F124W). Kind of experiment: fluorescence polarisation.
The target in experiment [10] is G3BP1 NTF2-like domain (1-139) TripleW (F15W/F33W/F124W) (human, UniProt Q13283 1-139, F15W | F33W | F124W). Put plainly: fluorescence polarisation.
The target in experiment [11] is G3BP1 NTF2-like domain (1-139) S38G (human, UniProt Q13283 1-139, S38G). Kind of experiment: fluorescence polarisation.
In experiment [12] the target is G3BP1 NTF2-like domain (1-139) S38T (human, UniProt Q13283 1-139, S38T). Put plainly: fluorescence polarisation.
The target of experiment [13] is G3BP1 NTF2-like domain (1-139) S38A (human, UniProt Q13283 1-139, S38A). Kind of experiment: fluorescence polarisation.
Sequence of G3BP1 NTF2-like domain (1-139) S38A (Q13283 1-139 S38A): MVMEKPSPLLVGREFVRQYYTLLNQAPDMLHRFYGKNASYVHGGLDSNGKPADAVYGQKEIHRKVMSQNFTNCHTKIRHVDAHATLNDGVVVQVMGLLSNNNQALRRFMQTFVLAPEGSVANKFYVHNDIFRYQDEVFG

T1 sequence (Q13283 1-139): as the sequence (Q13283 1-139 S38A) above, with A38S counted along it
Sequence of G3BP1 NTF2-like domain (1-139) F15/124W (Q13283 1-139 F15W/F124W): as the sequence (Q13283 1-139 S38A) above, with F15W, A38S, F124W counted along it
Sequence of G3BP1 NTF2-like domain (1-139) TripleW (F15W/F33W/F124W) (Q13283 1-139 F15W/F33W/F124W): as the sequence (Q13283 1-139 S38A) above, with F15W, F33W, A38S, F124W counted along it
Sequence of G3BP1 NTF2-like domain (1-139) S38T (Q13283 1-139 S38T): as the sequence (Q13283 1-139 S38A) above, with A38T counted along it
Sequence of G3BP1 NTF2-like domain (1-139) F33W (Q13283 1-139 F33W): as the sequence (Q13283 1-139 S38A) above, with F33W, A38S counted along it
Sequence of G3BP1 NTF2-like domain (1-139) F33/124W (Q13283 1-139 F33W/F124W): as the sequence (Q13283 1-139 S38A) above, with F33W, A38S, F124W counted along it
Sequence of G3BP1 NTF2-like domain (1-139) F15/33W (Q13283 1-139 F15W/F33W): as the sequence (Q13283 1-139 S38A) above, with F15W, F33W, A38S counted along it
Sequence of G3BP1 NTF2-like domain (1-139) F15W (Q13283 1-139 F15W): as the sequence (Q13283 1-139 S38A) above, with F15W, A38S counted along it
Sequence of G3BP1 NTF2-like domain (1-139) S38G (Q13283 1-139 S38G): as the sequence (Q13283 1-139 S38A) above, with A38G counted along it
Sequence of G3BP1 NTF2-like domain (1-139) F124W (Q13283 1-139 F124W): as the sequence (Q13283 1-139 S38A) above, with A38S, F124W counted along it
Sequence of G3BP1 NTF2-like domain (1-139), WT (Q13283 1-139): as the sequence (Q13283 1-139 S38A) above, with A38S counted along it

As for QGPYNFIQDSFLDFENQTLD [Caprin1 peptide M377F (SPOT array)], the binding result in [1] is recorded as “binds”.
As for QGPYNFIQDSYLDFENQTLD [Caprin1 peptide M377Y (SPOT array)], the binding result in experiment [1] is “binds”.
Still for that read-out and setting: next, QGPYIFIQDSMLDFENQTLD [Caprin1 peptide N371I (SPOT array)]: “binds”; QGPYDFIQDSMLDFENQTLD [Caprin1 peptide N371D (SPOT array)]: “binds”.
Turning to QGPYMFIQDSMLDFENQTLD [Caprin1 peptide N371M (SPOT array)], the binding result in experiment [1] is “binds”.
On the same count and under the same terms, next, QGPYCFIQDSMLDFENQTLD [Caprin1 peptide N371C (SPOT array)]: “binds”.
As to HSPQYIFGDLSPDEFNQFFV [USP10 peptide F13L (SPOT array)], the binding result in experiment [2] is “binds”.
In the case of QGPYWFIQDSMLDFENQTLD [Caprin1 peptide N371W (SPOT array)], the binding result in experiment [1] is given as “binds”.
On to QGPYRFIQDSMLDFENQTLD [Caprin1 peptide N371R (SPOT array)], for which the binding result in [1] is “binds”.
On to {fluorescein-Ahx}-YNFIQDSMLDFE [Caprin1-derived dodecamer reporter peptide F*-YNFIQDSMLDFE], for which the Kd was found to be 1.7 µM in [3]; 9.3 µM in experiment [4]; 79.3 µM in [5]; 1.7 µM in experiment [6]; 256 µM in experiment [7]; 14.4 µM in experiment [8]. For the same molecule, the Kd amounted to 133 µM in [9]; 240 µM in experiment [10]; 10.5 µM in [11]; 11.8 µM in experiment [12]; 7.3 µM in [13].
QGPYQFIQDSMLDFENQTLD [Caprin1 peptide N371Q (SPOT array)]: in experiment [1], the binding result was “binds”.
For the molecule HSPQYIFGDVSPDEFNQFFV [USP10 peptide F13V (SPOT array)], the binding result in experiment [2] is “binds”.
QGPFNFIQDSMLDFENQTLD [Caprin1 peptide Y370F (SPOT array)]: in [1], the binding result is recorded as “binds”.
Regarding QGPYLFIQDSMLDFENQTLD [Caprin1 peptide N371L (SPOT array)], in [1], the binding result is recorded as “binds”.
Still for that read-out and setting: the same measure for QGPYYFIQDSMLDFENQTLD [Caprin1 peptide N371Y (SPOT array)]: “binds”; for QGPYSFIQDSMLDFENQTLD [Caprin1 peptide N371S (SPOT array)]: “binds”.
As to HSPQYIFADFSPDEFNQFFV [USP10 peptide G11A (SPOT array)], in experiment [2], the binding result is reported as “binds”.
With HSPQYIFGDYSPDEFNQFFV [USP10 peptide F13Y (SPOT array)], the binding result in [2] is reported as “binds”.
HSPQYIFGDISPDEFNQFFV [USP10 peptide F13I (SPOT array)]: the binding result in experiment [2] is listed as “binds”.
Take QGPYNFIQDSMLDFENQTLD [native Caprin1 peptide QGPYNFIQDSMLDFENQTLD (SPOT array)]: the binding result in [1] is given as “binds”.
In the case of QGPYEFIQDSMLDFENQTLD [Caprin1 peptide N371E (SPOT array)], the binding result in experiment [1] was “binds”.
On to QGPYTFIQDSMLDFENQTLD [Caprin1 peptide N371T (SPOT array)], for which the binding result in experiment [1] is listed as “binds”.
With QGPYNFFQDSMLDFENQTLD [Caprin1 peptide I373F (SPOT array)], the binding result in [1] was “binds”.
Consider QGPYNFIQESMLDFENQTLD [Caprin1 peptide D375E (SPOT array)], for which the binding result in experiment [1] was “binds”.
For the molecule HSPQYIFGDWSPDEFNQFFV [USP10 peptide F13W (SPOT array)], the binding result in experiment [2] is “binds”.
Consider QGPYNFIQDSMIDFENQTLD [Caprin1 peptide L378I (SPOT array)], for which, in experiment [1], the binding result was “binds”.
Turning to QGPYKFIQDSMLDFENQTLD [Caprin1 peptide N371K (SPOT array)], in experiment [1], the binding result is recorded as “binds”.
With HSPQYIFGDFSPDEFNQFFV [native USP10 peptide HSPQYIFGDFSPDEFNQFFV (SPOT array)], the binding result in experiment [2] is “binds”.
With QGPYNFLQDSMLDFENQTLD [Caprin1 peptide I373L (SPOT array)], the binding result in experiment [1] is recorded as “binds”.
For the molecule QGPYNFIQDCMLDFENQTLD [Caprin1 peptide S376C (SPOT array)], the binding result in [1] is “binds”.
For QGPYVFIQDSMLDFENQTLD [Caprin1 peptide N371V (SPOT array)], the binding result in [1] is reported as “binds”.
For QGPYFFIQDSMLDFENQTLD [Caprin1 peptide N371F (SPOT array)], the binding result in experiment [1] is on record as “binds”.
As for QGPYHFIQDSMLDFENQTLD [Caprin1 peptide N371H (SPOT array)], the binding result in experiment [1] is reported as “binds”.
